# Assay results from PMC11242946, “Inhibition of ACE2–S Protein Interaction by a Short Functional Peptide with a Boomerang Structure” (Molecules, 2024).
# Molecular target: ACE2 on Vero E6 cells (monkey (endogenous in Vero E6))
# Assay: flow cytometry on cells
substance,measurement,value
functional peptide KYPAY (K5),IC50,6.7 µM
